For the experiment, the target named is T1, murine PrP^c (mouse, UniProt P04925 23-230).
T1 construct: also called mouse PrP^c; normal cellular prion protein
As to the kind of experiment: immunoblot of whole spleen homogenate (FIG. 5). A general note: Immunoblotting shows a protein as a band on a membrane.

T1 sequence (P04925 23-230 limits assumed): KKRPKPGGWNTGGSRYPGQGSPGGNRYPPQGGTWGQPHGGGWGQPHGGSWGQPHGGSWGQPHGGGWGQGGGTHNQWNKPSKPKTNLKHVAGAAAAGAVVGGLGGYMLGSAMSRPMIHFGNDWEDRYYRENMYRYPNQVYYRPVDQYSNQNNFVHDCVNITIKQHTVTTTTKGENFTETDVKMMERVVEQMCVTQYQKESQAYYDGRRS

B1: ICSM 18 (antibody, V domains shown)
VH: EVQLQQSGPELVKPGSSVKISCKASRNTFTDYNLDWVKQSHGKTLEWIGNVYPNNGVTGYNQKFRGKATLTVDKSSSTAYMELHSLTSEDSAVYYCALYYYDVSYWGQGTLVTVSA
VL: QIVLTQSPAIMSASPGEKVTMTCSASSSVSYMHWYQQKSGTSPKRWIYDTSKLASGVPARFSGSGSGTSYSLTISSMEAEDAATYFCHQWRSNPYTFGGGTKLEIKR
notes: also called biotinylated ICSM 18
Consider B1, for which the binding result is listed as “binds”.

The values above are taken from patent publication US20060280745A1 (MEDICAL RESEARCH COUNCIL, published 2006).
